Where only a bound is given, the exact number is not on record here.

Assay [1] has as its target Vtc4* (Vtc4(1–487), SPX and TTM domains of Vtc4 without the transmembrane domain) (S. cerevisiae) (UniProt P47075). In words: MST; as a1, MST buffer supplemented with 2.5 mM natural 5-IP7.
Assay [2] shares this target. In words: MST; as a1, MST buffer supplemented with 2.5 mM IP6.
Assay [3] has the same target. Put plainly: MST; as a1, MST buffer supplemented with 2.5 mM 1,5-IP8.
Assay [4] shares this target. Put plainly: MST. The note with it: domain or fragment.

Chain of Vtc4* (Vtc4(1–487), SPX and TTM domains of Vtc4 without the transmembrane domain) (S. cerevisiae) (P47075 1-487): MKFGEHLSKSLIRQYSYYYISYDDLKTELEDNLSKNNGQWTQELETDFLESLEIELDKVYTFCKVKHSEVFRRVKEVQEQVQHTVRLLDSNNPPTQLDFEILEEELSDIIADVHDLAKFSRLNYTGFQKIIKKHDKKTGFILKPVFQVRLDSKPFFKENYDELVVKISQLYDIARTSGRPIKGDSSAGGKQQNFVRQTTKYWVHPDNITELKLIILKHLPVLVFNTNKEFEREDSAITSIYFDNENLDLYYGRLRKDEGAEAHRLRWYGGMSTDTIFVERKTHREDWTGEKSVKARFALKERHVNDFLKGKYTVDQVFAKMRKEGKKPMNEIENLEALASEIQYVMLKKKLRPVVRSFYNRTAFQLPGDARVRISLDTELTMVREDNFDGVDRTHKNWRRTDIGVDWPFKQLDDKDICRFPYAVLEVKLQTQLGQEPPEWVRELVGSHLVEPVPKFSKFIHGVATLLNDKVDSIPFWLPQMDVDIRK
Chain of SPX2∆α1 (SPX2 with helix α1 truncated) (P43585 1-151): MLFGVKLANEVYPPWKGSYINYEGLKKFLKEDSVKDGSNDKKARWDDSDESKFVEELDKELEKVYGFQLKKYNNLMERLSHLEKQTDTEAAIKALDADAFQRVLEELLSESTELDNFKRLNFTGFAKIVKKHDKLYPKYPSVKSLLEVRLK

On to “SPX2 (SPX domain of Vtc2, Vtc2(1–201)) (from UniProt P43585 1-201) (domain or fragment)”, for which the fold decrease of affinity with 2.5 mM 5-IP7 against no ligand in assay [1] stood at 85 fold. The same substance returned a fold decrease of affinity with 2.5 mM IP6 against no ligand in assay [2] above 20 fold. In assay [3], this substance registered a fold decrease of affinity with 2.5 mM 1,5-IP8 against no ligand above 100000 fold.

In general, Kd refers to the constant that tells how readily two partners part at equilibrium. The low end stands for a tighter complex, the high end for a looser complex. In assay [4], SPX2∆α1 (SPX2 with helix α1 truncated) gave an equilibrium dissociation constant (Kd) of 1 mM.

(Values after publication PMC10167327.)
